Here are results for 69 sequences from the domain aggregation screens of Martell et al. (2025).

The nature of the series: soluble fraction after stress (log2 fold change); higher = more stays soluble; pooled small domains, quantitative proteomics. Particulars: stress: 50 degC. The method in brief:
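The stress applied to every library was 50°C. These custom libraries of small protein domains were pooled and measured at high throughput with quantitative proteomics as the read-out. Aggregation propensity is expressed as the base-two logarithm of the fold change in how much of each protein remains soluble. The higher the value, the more of that protein stays in solution.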
For “HMHAPKIIVLTINPDKIRDVIGPGGKMIKSIVAATGVKMDVEDDGKIHISSSDQKAADEAIRMINEITAEA”, the “soluble fraction (log2)” value turned out to be 0.0184.
The same measure for “HMHAPLEVGSVVRIEGQKALGTILSISDREAIVALGALKTTIPLKRLHGVSPAEAQRHLRKTTPAQAVR”: 0.0521.
Then “HMHAQDTLMTRAGETRTVKILEIGLEEIKYRIWGLDDSPVIVIDKIDVKQIVFSNGEKMTIVQ”, with -1.44; and “HMHDLTERQREILQTLASGKMALREILSILSQPPSLRTLRDELYHLKRIGLVDTMGYGRGATWFLTQ”, with -0.103.
As to “HMHDNPLSAQEQRVLDLIAAGKTSKEIASQLFLSDGTVRNYTTSIFNKLNANNRVEAINIAQENGW”, the “soluble fraction (log2)” value was determined as 0.486.
As for “HMHDPRLPLPGTLLAREFQGRDIVVKVLDNGFEFDGRRYKSLSAIAQEVTGSKWNGFLFFGI”, the “soluble fraction (log2)” value is -0.857.
The same measure for “HMHDWDITTAAKPEKIFELFSDIPVLETGLKHGTVTLLIDHEPYEVTTFRVDGNYTDGRHPDSVAFT”: -0.0484.
For the sequence “HMHGESIPIPNILHKRYADAEQIVNNLRLEIEVTDTGYVRSLPPGAILEQTPGPGERVKSGHIIYVTINAA”, the “soluble fraction (log2)” value is -0.291.
Then “HMHGETLAAKRREEIKVRIQNIYDQSEQIFGYRKITATLRSQGVVVSEKLVSQLMRELEISSVS”, with -3.87; and “HMHGSSVEIPNIYGLPASEAVQLLDKADLRYEVIDSVYTTEVPKGAVYDLSPKAGSRVKAGRIIFLTLNA”, with -0.756.
Then “HMHGSTAVVPQIKNMPYSEASVRLGANGLAIEINDSVYDRDMPPGTVIESWPKAGAVVKQGRQVYVTVTA”, with -0.221; and “HMHHGALKQALLDETARILAEEGESALSLRRLASNLGVSRTAPYNHFDNKDALLSAVAEEGFRR”, with -0.032; and “HMHIELNDTQKRILNFLSDDPNLSAVRLAEQLGISSRNVEKNIKKLKEYGILIRHGSPKNGYWEIVV”, with 0.0335.
In the case of “HMHITSFTIKQADQIVGTTPVREQAVGAAKARAQQTGTPVSVIAYLDTGEEREVIIHPDGTN”, the “soluble fraction (log2)” value was 0.324.
Then “HMHKLTSRQEEILQFIKDYLSEIGYPPTRSEIAQKMGFRSTNAAEEHLRALARKGAIEILPGPSRGLRLP”, with -0.455; and “HMHKTEIKIPSREDILAVLRQAQAPLTREQVFEHLKLTEDQIPIIEKRLNAMERDGQLMPNRKGMLLLSTK”, with 0.266.
On to “HMHKYEYESLNHVNVGSNLKYISTHFGQPKLIKKSKYHENLNFAYYLEKKFILTLILEGDRVNAYTITG”, for which the “soluble fraction (log2)” value amounted to 0.0565.
Then “HMHLEKGEVVVPDLKGLTMRQVGELLGKLNLRYSFSGTGLAVKQFPESGQIVNQGDIIEVIF”, with -0.138; and “HMHLLPAREQVAAYLRKAILRQEIREGTILNLADTARQMGVSVTPVREALQLLAAQGLVRLRPNKGAVVMG”, with -0.891; and “HMHLNVYRDEDEAMLAFKDHLIGTHQPIRVRVEKALPDGTMGHKIVDTTIGRIVFNHNIPQD”, with -0.189.
Consider “HMHLTEAPLIKITYFEADQKKSGGQYITIINHLKKINEYENLLVLENGVKINIDDIYELESV”, for which the “soluble fraction (log2)” value was -0.132.
The same measure for “HMHMNFGEILQTKRKEKGFTQEELAHQLLVSSKTISNWETNKTTPDIDNVIRISQLFDISLNQLLLE”: -0.379; for “HMHMSKKLADSIISLRRKHGFSQEQLAEKIGVTRQAISNWERGTATPDVETLNLIAKLFDMDLLAIINGE”: 0.0766.
Then “HMHNLYAPTQKEVDHARRVVEAAEAAAREGLGVVSLNGKMVDGPVIDRARLVLSRAELSGIRE”, with 0.072; and “HMHNNTITLNKKTYVYTASGKKMSKYLGYTYINKGTTLNYYGTKNIKGKTFYYIGDHAYVNAANVGKVTN”, with -1.92; and “HMHNQIGDKIRELRTRSNLTQADLGKLVGVSMQAVSKWERGGTPDIDVLLSVAKYFNISLDEMVGRT”, with -1.08.
The same measure for “HMHPEITLHPVRANIYSISVKNATSMEIYSVSGQLVGIRELKEGTNTLDLTGYINGVYIVNLQNKAFKLVK”: -1.94.
Regarding “HMHPELSDSQRTLIALMASGLKDEAIAVEMGVGARTVRRKVQELYELLGVRTRFQAGVAANQRGW”, the “soluble fraction (log2)” value is -1.79.
Consider “HMHPKDVPTRRELEVLQAVSEGLSTAEIGLRLDITENTVETFRRRLIQKFDAKNAIDLVVKAMAQGWIKV”, for which the “soluble fraction (log2)” value was -1.16.
Then “HMHQGTIEVGSIVHIEGQKALGTILSLTQREAIVGLGALKTTIPLKRLHLATEAEARRHKKSVTPQEAV”, with 0.0611; and “HMHQIFAETVFEDIAFGPRNKGFNEEEVAKQVREAMAFVGLDYDTYAQRSPFQLSGGQMRRVAIAGVVA”, with -0.0418; and “HMHQKYIITGTRDTYVVSQGETLRTIAEHVYGSRGYARYIIEHNHITHPDDIPVGLTIRLPELELNPDYR”, with -0.525.
The same measure for “HMHRAKRTKAQTQSSLESIEGIGPKTRKQLLVHFGGLAEVKAASVSELQKVKGISLDKAQKIYDFFHGS”: 0.00473; for “HMHRNLSFEEEKEFLSAYTKQAEAGQIVDLNEMKAAYIEKVGHSIGGSQIYRMLERHGWRKVM”: -0.312; for “HMHSDSEIEKGYTDDGQKLSNVNGVYMTKSEMYNKGIVEKDPNTGEEVMGRNRVNPVTGELE”: 0.164.
The same measure for “HMHSDWITWWYLKDKRFDDDYSLWDRQPVHPEYFEVVKEFKAPPESNPGGLDEVKRILRTYIPDAFAP”: -0.976; for “HMHSESAAHQRTSVELFARIPETGNLQSAQRHFDVINQFGRFPHRNKILQRPSSEQEEAFLRQPGSG”: 0.0792.
As to “HMHSILDDIPTVGPARRKALMRRYESLEAIRQATVDELKELPEINEASAEAIVSFFAGQAKEG”, the “soluble fraction (log2)” value is -0.0626.
Then “HMHSRTWTSADGVKTFEGELQSYDAASGKVSVILPNHKRITFKQEKLSADDIAWLEKNGNRP”, with 0.102.
The same measure for “HMHTGLTNYEYKQIKSSLLKILTQSESMRLGELVDKVDQFESEKVTTVIRFLVGNEELMLFDDTLTLKKQL”: 0.0246.
The same measure for “HMHTTIIVASRDIAAGSVLTSHDLSSVAWVGGAVPKGSYTAADLAVGKTAFTAFQQGEPILESRLAS”: -0.00332.
As for “HMHVVVIDKQGALSYQGKAITLLDLKNIVIDVPKETPFLIKADKDIHLQSFVEVLDLIKTAGFKKVSLQ”, the “soluble fraction (log2)” value is -0.182.
Then “HMIAANMTISQRIAAALAEYGVMSVKDIAQEVLGATDKKDTEKIRVTLTRDHGKRFRTYSDGTWSLKDWRP”, with -1.12.
The same measure for “HMIAAVIAQVANTNERIILEKRYLSFKSWDEIAVEMRISPRWAYTLHERALKAVDQVLSKQNNE”: -4.07; for “HMIADDLKSLEGVDQDMLRDLAEAGINTRDDLAELAIDELIEITGVSTEEAEKVIMAARAHWFEEES”: 0.463; for “HMIAKEDDGTAFLIDGKISSEEEFKTISKDDILEVFVYKETEIAQKKLDSINSINNTYYTSLIEILLKE”: -0.127.
The same measure for “HMIAKIEGQISYVGNRFLIVDVSGVGYKLFVTNEAISLSKVEESIKLWVHTAVRENSIDLYG”: -0.7; for “HMIANDDEIRKVVLEVIEEQPKAVEDVKNGRDRILDFLVGQVMKKTRGKANPSLASNLMKEEIEK”: 0.177; for “HMIANNFDEFVEKVSEAERKALNMPAGQEMTQKLLEMKLAANPNLTPEEWQRTKSEFMTFLFAVFVRE”: -0.842.
With “HMIAVLEEGSHFRAVNDVTGKPFGPEMVIKNGQVTAVGKTISTKPKNLLGKKEGTKFVISGKQYVIKDI”, the “soluble fraction (log2)” value is -0.00494.
Then “HMIDAHTALLAKRLEAKGMLPLTDKSSAEEIYAEFGISKKAFKKALGALYKERLVRIGEDGVVWI”, with -1.27; and “HMIDFIGLEAKLLSTISGEKMGNAEVIVDGNVMNIYVKSLDTSEIKFRENVLIIKQSDDKNYYLVAKP”, with -0.453; and “HMIDIDTILKKYKPGRRDELIPLMQEIQEVYGHLSEEAVVKIGTYVGLSTTKIYGLATFYDQFRF”, with -1.24.
Then “HMIDLGKSRTWHSENGRAIEARVINISEEQQTVEMQRVDGLKFELSWNQLSKADQTLLAEAAKKTALVA”, with 0.0711.
In the case of “HMIDLPDIDIDFAKRTGVLEHITHTPARLETGKQHNTGVYFTDIPRGVDGLATMDHKRAEQLGYFKLDML”, the “soluble fraction (log2)” value was determined as 0.0268.
Then “HMIDNKIIRSLRQKRNMTLEELAKKANISVSYLSEIELGKKQPSLETINKLSQALNISREGLI”, with -0.0409; and “HMIDPHGSLTLDLRPRDARVEIIDSNKTYKPGVRLPMGEYAIAVSRRGYISETKRINIEYGDNRERVAL”, with 0.0829.
Then “HMIDSDENERIKELIKALISETLKSRGVSPEVISDIKERVDRLHNEELPRFAAELKELISRN”, with 0.119; and “HMIDSEEVMETIQDLGYSPVFDVKEKFYKIKEEQIGKITLEVHIILRYGMVDLVWIVRENGELLLG”, with 0.138; and “HMIDTLEYIISEESKGLRADQAITMVNGEFSRSLIQKWIKKGSILVNGKKIKPRDILNLNDKVTINPEEN”, with -0.0699.
The same measure for “HMIEDMQQWIRQIREIVSNRLDLTRNISDDEIREVISDIVMEQSRQQYMSLNEKKTLMEGVFNSMR”: -0.157.
Regarding “HMIEEIETQFLFDFGLIGHPNSAKIREKLSEALGIGYVNGKQLQKRLMMFGITKQQVVDVLTD”, the “soluble fraction (log2)” value is -4.94.
Then “HMIEMAGGYRKGDRVELHSLKGAAEHNGKQGTVVGPQGERVKVLLDDSDSKTLALKVTNLTKLESA”, with 0.112.
The same measure for “HMIEMGNRIRTLRKRRVGSQSEFAEKLDVSVVTISRIENGMTKIDAELLIKMSEVLQVPVNIILGM”: -3.22; for “HMIENPGQTFERIAGKITRTLRTGPLRIQQLDLLFSESGEQVMDVLRAMAENGEILIKDDTIQWNGHN”: -0.0388; for “HMIERKLRKKEHFIASVGEKVKIKNFATETYKGELISADNEKVVVETEFGKEEITYDNILAAATYFE”: -0.135.
The same measure for “HMIFNENLKSAREKKGLSQKEVAEAIGVAKSTYSLYESGNREPNVQTIKRIADVLNVSADVLLGL”: 0.00744; for “HMIGELVVEDLAAASEINVDTIRYYQRLGLLEPPRRRGRRAVYDHTHLERLAEIRRLAGAGFTLAQIGRLK”: -2.53.
As for “HMIGILSDREAEILALLDEGLTNKAIGRRLNLAEPTVKFHLKNLYAKLGVGRRQLAVNVAKGSGLLNSD”, the “soluble fraction (log2)” value was -0.699.
